# Assay results: the nanobody polyreactivity screen of Harvey et al. (2022)
# Assay: yeast display, Sf9 membrane polyspecificity reagent, FACS + sequencing; frameworks hold sequencing errors
# Method in brief: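 A nanobody's polyreactivity label depends on the gate it was sorted from. Yeast display cells were stained with 10% biotinylated, detergent-solubilized Sf9 membrane reagent for 1 hour at 4 °C, enriched on streptavidin microbeads and sorted by FACS. The low and high (top ~1%) gates were set on anti-HA fluorescence for expression and streptavidin fluorescence for reagent binding.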
row,Sequence,polyreactivity (PSR sort gate)
1,QVQLVESGGGLVQAGGSLRLSCAASGIIFVYYAMGWYRQAPGKERELVAAINWSGGSTYYADSVKGRFTISRDNAKNTVYLQMNSLKPEDTAVYYCAASSYITSDQRFYYWGQGTQVTVSS,high polyreactivity
2,QVQLVESGGGLVQAGGSLRLSCAASGRTFVTYAMGWYRQAPGKERELVAGIRRGGSTYYADSVKGRFTISRDNAKNTVYLQMNSLKPDDPAVYDCAKTFYAHRAYTSYTARPYDYWGQGTQVTVSS,high polyreactivity
3,QVQLVESGGGLVQAGGSLRLSCAASGSILVEYAMGWYRQAPGKERELVAGISGSTGTTYYADSVKGRFTISRDNAKNTVYLQMNSLKPEDTAVYYCAKLFPVARPQYGYWGQGTQVTVSS,low polyreactivity
4,QVQLVESGGGLDQAGGSLRLSCAASGSTFTRNAMRWYRQAPGKERELVATISSGGSTNYADSVKGRFTISRDNAKNTVYLQMNSLKPEDTAVYYCAKRSLYSYYYWGQGTQVTVSS,high polyreactivity
5,QVQLVESGGGLVQAGGSLRLSCAASGSTRYYAMGWYRHAPGKERELVASITTIGGSTSYADSVKGRFTISRDNAKNTVYLQMNSLKPEDTAVYYCATRSLVYSARAAGLIQFDHWGQGTQVNVSS,low polyreactivity
6,QVQLVESGGGLVQAGGSLRLSCAASGIIFFWNAMGWYRQAPGKERELVAAISSGGSTYADSVKGRFTISRDNAKNTVYLQMNSLKPEDTAVYYCAARFYHGYRPYSAIYGYGYWGQGTQVTVSS,low polyreactivity
7,QVQVVESGGGLVQAGGSLRLSCAASGFTIFSYAMGWYRQAPGKERELVAAISRRGGSTYYADSVKGRFTISRDNAKNTVYLQMNSLKPEDTAVYYCNAKWTSHGTYAEDYWGQGTQVTVSS,high polyreactivity
8,QVQLVESGGGLVQAGGSLRLSCAASGRISQYNAMGWYRQAPGKERELVATITRGGSTYYADSVKGRFTISRDNAKNTVYLQMNSLKPEDTAVYYCATDRYWWSGFDYWGQGTQVTVSS,high polyreactivity
9,QVQLVESGGGLVQAGGSLRLSCAASGLILPYYTMGWYRQAPGTERELVAAITWGGDSTYYADSVKGRFTISRDNAKNTVYLQMNRLKPEDTAVFYCAAYPQRRFYWQYRYDYWGQGTQVTGSS,high polyreactivity
10,QVQLVESGGGLVQAGGSLRLSCAASGSTFWFYAMGWYRQAPGKERELVATITIGGRTYADSVKGRFTISRDNAKNTVYLQMNTLKPEDTAVYYCAARRGRLEYVNGRYDYWGQGTQVTVSS,low polyreactivity
11,QVQLVESGGGLVQVGGSLRLSCAASGGIFSGNAMGWSRPAPGKERELVAGITNGGRTTYADSVKGRFTISRDNAKNTVYLQMNSLKPEDTAVYYCNVYVSAGEEDEYWGQGTQVTVSS,low polyreactivity
12,QVQLVESGGGLVQAGGSLRLSCAASGSIFNDYGKAWYRQAPGKERDLVAAISASGGSTYYADSVKGRFTISRYNAKNPVYLQLNSLNPEDTAVYYCAAYYMGLYYLYVDALGYDYWGQGTQVTVSS,low polyreactivity
13,QVQLVESGGGLVQAGGSLRLSCAASVSIFGVKVMGWYRQAPGKERELVAAIDVSDTSTYYADSVKGRFTISRDNAKNTVYLQMNSLKAEDTAVYYCAARRTRYPFQFDYWGQGTQVTVSS,low polyreactivity
14,QVQLEESGGGLVQAGGTLRLSCAACGRTFYRYAMGWYRKAPGKERQLVAAISASGGITYYADSVKGRFTISRDNAKNNVYLQMNSLKADDTAVYYCAVRYNPWYGNYDYWGQGTQVTVSS,high polyreactivity
15,QVQLVESGGGLVQAGGSLRLSCAASGSTFVRNAMGWYRQAPGKERELVAAITWSTGTTYYADSVKGRFTISRDNAKNTVYLQMNSLKPEDTAVYYCAADIYTELFKHDYWGQGTQVTVSS,low polyreactivity
16,QVQLVESGGGLVQAGGSLRLSCAASGRIFGWYAMGWYRQAPGKERELVAAISYSGGSTYADSVKGRFTISRDNAKYTVYLQMNSLKPEDTAVYYCAAYSSYYVHRFQHYDYWGQGTQVTVSS,high polyreactivity
17,QVQLVESGGGLVQAGGSLRLSCAASVFLPYTMGWYRQAPGKERELVAAITRGGSTYYADSVKGRFTISRDNAKNTVYLQMNSLKPEDTAVYYCAKRSTFAWRGYDYWGQGTEVTVSS,high polyreactivity
18,QVQLVESGGGLVQAGGSLRLSCAASGRTINRYAMGWYRQAPGKERELVAAISTSGGTTYYADSVKGRFTISRDNAKNTVYLQMNSLKPEDTAVYYCNARALAYWGQGTQVTVSS,high polyreactivity
19,QVQLVESGGGLVQAGGSLRLTCAASGRIFRRNAMGGYRQAPGKEREMVATITSGSSTNYADSVKGRFTISRDNAKNTVYLQMHSLKPEDTAVYYCAKLPWKYRVGYYRNQQTYDYWGQGTQVTVSS,high polyreactivity
20,QVQLVESGGGLVQAGGTLRLSCAPSGSTFFPYAMGWYRQAPGKEREFVSAIRGSGGVSTYYADSVKGRFTISRDNAKNTVYLQMNSLKPEDTAVYYCAKYVARRVPRGFYYWGQGTQVTVSS,high polyreactivity
21,QVQLLESGGGLVQAGGSLRLSCASSGRTFVRYGMGWSRQAPGKERELVAAITGSGSRTYYADSVKGRFTISRDNAKNTVYLQMNSLIPKDTAVYYCAGRGQGGAGDPRYPVYYWGQGTQVTVSS,high polyreactivity
22,QVQLVESGGGLVQAGGSLRLSCAASGPTFYYYAMGWYRQAPGKERELVAAITWSGGSTYYADSVKGRFTISRDNAKNTVYLQMNSLKPEDTAVYYCAADVTYSRYEYWGQGTQVTVSS,low polyreactivity

row,Sequence,polyreactivity (PSR sort gate)
1,QVQLVESGGGLVQAGGSLRLSCAASGRIFVSNAMGWYRQAPGKERELVAGITWTSGSTYYADSVKGRFTISRDNAKNTVYLQMNSLKPEDTAVYYCAAEYCYGNAFDYWGQGTQVTVSS,low polyreactivity
2,QVQLVESGGGLVQAGGSLRLSCAASRLTFQDYAMGWYRQAPGKERELVAGISRSGGRTNYADSVKGRFTISRDNAKNTVYLQMNSLKPEDTAVYYCATPYRRLNTWIYDYWGQGTQVTVSS,high polyreactivity
3,QVQLVESVGGLVQAGGSLRLTCAASVSIIRYNAMGWYRQAPGKERELVAAITKGAGSTYYADSVKGRFTISRDNAKNTVYLQMNSLKPEDTAVYYCAAAGGTSRRTIYTAFYYWGQGTQVTVSS,high polyreactivity
4,QVQLVESGGGLVQAGGSLRLSCAASGSTFVRYAMGWYRQEPGKERELVAAISKSGGSTYYADSVKGRFTISRDNAKNTVYLQMNSLKPEDTAVYYCNADVYKNSKFRIMGYWGQGTQVTVSS,low polyreactivity
5,QVQLVESGGGLVQAGGSLRLSCAASGGIFFIYAMGWYRQAPGKERELVAAISWGGGSTYYADSVKGRFTISRDNAKNTFYLQMNSLKPEDTAVYYCAARLYGRGYYYWGQGTQVTVSS,high polyreactivity
6,QVQLVESGGGLVQAGGSLRLSCAASGFTLPLYAMGWYRQAPGKERELVATISSGGTTYYADSVKGRFTISRDNAKNTVYLEMNCLKPEDTGVYYCAAGGTFFHRFYYYYRSDYWGQGTQVTVSS,high polyreactivity
7,QVQLVESAGGLVQAGGSLRLSCAASGNTFRYYAIGWYRQAPGKERELVAVITTRGGSTNYADSVKGRFTISRDNAKNTVYLQMNRLKPEVTAGYYCNTLRHYGPGYDSGGQGTQVTVSS,low polyreactivity
8,QVQLVESGGGLVQAGGSLRLICAASGSIIAINVMGWYRQAPGKEREFVAAISVRSGSTYYADSVKGRFTISRDNAKNTVYLQMNSLKPEDTAVYYCAARTSRFWRGGGLDYWGQGTQVTVSS,high polyreactivity
9,QVQLVESGGGLVQAGGSLRLSCAASGGSFLVNDMGWYRQAPGTERELVAAITSGGGTYYADSVKGRFTISRDNAKNTVYLQMNSLNPEDTAVYYCARDTYRPIVSNESYGYWGQGTQVTVSS,low polyreactivity
10,QVQLVESGGGLVQAGGSLRLSCAASGFTIDYYTMGWYRQAPGKERELVAAISWSGGSTYYADSVKGRFTISRDNAKNTVYLQMNSLKPEDTAVYYCAAAWSYRYELYYWGQGTQVTVSS,low polyreactivity
11,QVQLVESGGGLVQAGGSLRLSCAASGRTFRYNALGWYRQAPGKETELVAAISGRGSSTYYADSVKGRFTISRDNAKNTVYLQMNSLKPEDTAVYYCAALPASVRRPGWHDYWGQGTEVTVSS,high polyreactivity
12,QVQLVESGGGLVQAGGSLRLSCAASGSIFVSNAMGWSRPAPGKDRELVAGINYSGGSTYYADSVKGRFTISRDNAKNTVYLQLTSLKPEDTAVYYCARRRPYQWPYNYWGQGTQVTVSS,high polyreactivity
13,QVQLVESGGGLVQAGGSLRLSCAASGITFVNNAMGWYRQAPGKEREFVAAISWSGGNTYYADSVKGRFTISRDNAKNTVYLQMISLKPEDTAVYYCSGYISRSRFRFYYWGQGTQVTVSS,low polyreactivity
14,QVQHVESGGGLVQAGGSLRLSCAASGRIFNLYAMGWYRQAPGKERELVAAIRGRGTSTYYADSVKGRFTISSDNAKNTVFLQINSLKPEDTAVYYCAREGGYGPTLQDTSRYEYCGQGTQVTVSS,low polyreactivity
15,QVQLVESGGGLVQAGGSLRLSCAASGSISYVNAMGWYRQAPGKERELVAAITGGGSTNYADSVKGRFTISRDNAKNTVYLQMNSLKPEDTAVYYCAADADTDVVYILQEYDYWGQGTQVTVSS,low polyreactivity
16,QVQLVESRGGLVQAGGSLRLSCAASGMTFSDYPMGLYRQAPGKEREFVSAITSGGRTNYADSVKGRFTISRDNAKNTVYLQMNSLKPEDTAVYYCAAVYTYVYYYHYPYYYWGQGTQVTVSS,low polyreactivity
17,QVQLVESGGGLVQAGGSLRLSCAASGRIFAGYAMGWYRQAPGKERELVASIRSSGSTYYADSVKGRFTISRDNAKNTVYLQMNSLKPEDTAVYYCNKYVPYRHLWDYGYWGQGTQVTVSS,high polyreactivity
18,QVQLVESGGGLVQAGGSLRLSCAASGSTFKAYAMGWYRQAPGKERELVAAITNSDGDTYYADSVKGRFTISRDNAKNTVYLQMNSLKPEDTAVYYCIADTGKWGGNGWYEFDYWGQGTQVTVSS,low polyreactivity
19,QVQLVESVGGLVQAGGSLRLSCAASGFTFASNAMGWYRQAPGKERELVAAISRSGGSTFYADSVKGRFTISRDNAKNTVYLQMNSLKPEDTAVYYCAADIWRVYSTFYYWGQGTQVTVSS,low polyreactivity
20,QVQLVESGAGLVQAGGSLRLSCAASGITFSYYSMGWYRQAPGKERELVAVISGSGSTTSYADSVKGRFTISRDNAKNTVYLQMNSLKPEDTAVYYCAADGGWRPEYYYWGQGTQVTVSS,low polyreactivity
21,QVQLVESGGGLVQAGGSLRLSCAASGRIFSFYAMGWKRQAPGKERELVAAITWGDGSTYYADSVKGRFTISRDNAKNTVYLQMNSLKPEDTAVYYCNKTYIDTTVYDVIMDYWGQGTQVTVSS,low polyreactivity
